The source of these data is patent US20170072041A1 (OHIO STATE INNOVATION FOUNDATION, published 2017).

The target in assay [1] is mouse DNase X on wild-type bone marrow-derived macrophages (BMDMs) (mouse) (UniProt Q9D7J6). In words: cell-based or functional assay.
Assay [2] concerns the target T1, mouse DNase X on wild-type bone marrow-derived macrophages (BMDMs) (mouse, UniProt Q9D7J6 38-314).
T1 construct: whole, on cells
T1 sequence: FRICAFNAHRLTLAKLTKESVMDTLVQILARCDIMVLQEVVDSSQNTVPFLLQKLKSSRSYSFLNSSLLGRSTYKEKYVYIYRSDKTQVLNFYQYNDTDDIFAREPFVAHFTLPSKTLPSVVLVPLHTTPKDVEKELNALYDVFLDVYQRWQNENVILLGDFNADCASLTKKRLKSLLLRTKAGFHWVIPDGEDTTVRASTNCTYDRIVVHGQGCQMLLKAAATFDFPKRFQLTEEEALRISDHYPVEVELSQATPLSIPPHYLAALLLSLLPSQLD
Description: bead binding to BMDMs of wild-type and DNase X-/- mice, 30 min at 4 C.

The target of assay [3] is T2, native human DNase X (deoxyribonuclease 1-like 1) from THP-1 cell lysate (human, UniProt P49184 19-302, limits assumed).
T2 construct: GPI-anchored cell surface protein; also called DNase 1L1; DN1L1
T2 sequence (looked up): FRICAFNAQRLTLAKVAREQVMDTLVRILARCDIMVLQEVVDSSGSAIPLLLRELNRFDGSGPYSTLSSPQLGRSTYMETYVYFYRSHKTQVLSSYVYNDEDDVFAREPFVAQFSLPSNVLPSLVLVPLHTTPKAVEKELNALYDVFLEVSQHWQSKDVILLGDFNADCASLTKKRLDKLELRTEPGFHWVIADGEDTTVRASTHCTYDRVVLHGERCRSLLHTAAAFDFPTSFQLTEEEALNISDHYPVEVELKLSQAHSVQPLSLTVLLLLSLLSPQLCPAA
In words: far-Western blot, THP-1 cell lysate, anti-DNase X.

Assay [4] has as its target T3, human DNase X on the cell surface (HEK293 cells, human primary macrophages derived from peripheral blood … (human, UniProt P49184 19-302)).
T3 construct: whole, on cells; Endogenous protein on non-permeabilised cells; also called cell surface-exposed DNase X; surface DNase X
T3 sequence: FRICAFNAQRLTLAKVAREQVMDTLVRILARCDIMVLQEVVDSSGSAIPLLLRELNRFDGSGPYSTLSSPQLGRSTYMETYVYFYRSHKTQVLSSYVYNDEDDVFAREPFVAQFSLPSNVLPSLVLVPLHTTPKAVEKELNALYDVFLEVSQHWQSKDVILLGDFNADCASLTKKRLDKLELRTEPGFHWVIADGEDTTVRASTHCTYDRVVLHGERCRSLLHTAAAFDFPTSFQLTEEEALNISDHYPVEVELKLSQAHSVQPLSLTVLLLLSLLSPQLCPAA
In words: immunofluorescence of non-permeabilised HEK293 cells incubated with coated beads.

As for “native full-length EtpE (ECH1038, entry triggering protein of Ehrlichia) of E. chaffeensis Arkansas (ligand)”, in assay [1], the decrease in E. chaffeensis binding and entry into BMDMs at 4 h pi, DNase X-/- against wild type was 60%.

B1: rEtpE-C (recombinant C-terminal region of EtpE/ECH1038, residues 1656-1963, C-terminal histidine-tagged fusion protein) (ligand)
chain: ELLSLVGGHRNASSNNANNGRSLSQGIRYKITFKISFAQNYFPVDEIIKLQQDANNMEYGVHGVHRTDIIALWSYISYASSKSKWLFKRYQSFAGLLFEIGAWGKCTSAERVFFTSMNRYSEKLPLKVYNFIRKITTGDFARKFSGMQSLYTYKQRVYDYVMHCVLRGGLGGECSDMTLREISNELHKLKQEIYSNYDVFRDLGITNGQQEVLLLINVMMLNYAMSDLLVSTTQVNSMLADVRSSLSRTAHCLPYGTVSQLQRSVSHMKYGEYSNYRASVVALWACISCLASFNDDMEPLIKLMLEGD
notes: Used renatured on membrane or Ni matrix, or coated on 0.5 um latex beads; also called rEtpE-C-coated beads; not shown: C-terminal histidine tag from pET33b(+)
Turning to B1, the binding result in assay [2], in assay [3] and in assay [4] was “binds” each time.
